Reference: PMC8402574

Molecular target: NG19 (Non-Glycosylated protein of 19 kDa, S371 to F541 of the SARS-CoV-2 Spike protein RBD) (SARS-CoV-2) (UniProt P0DTC2)
Test: Tricine-SDS-PAGE under non-reducing conditions

“NG19 (Non-Glycosylated protein of 19 kDa, S371 to F541 of the SARS-CoV-2 Spike protein RBD) (from UniProt P0DTC2 371-541) (domain or fragment)” was tested, and the stoichiometry N was 2.
